Measured values as given in patent publication US20200283478A1 (Genentech, published 2020).
Bridge positions count the residues as written; N and C are the ends. Ends that are not written are not given here. * marks the point of attachment. Fmoc = O=C(OCC1c2ccccc2-c2ccccc21)*

Columns and labels:
[1] = molecular target: T1, His-tagged, full-length PCSK9 (human, UniProt Q8NBP7 31-692); assay: TR-FRET competition (PCSK9/EGF(A) assay); competitor EGF(A)-Fc;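 note: proximity signal from anti-His APC on PCSK9 paired with anti-Fc europium on the Fc ligand, read as normalized TR-FRET ratio across compound dilutions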
T1 construct: secreted PCSK9 is autocatalytically cleaved into prodomain and catalytic domain + CRD (from S153), which stay associated; also called His-PCSK9; proprotein convertase subtilisin/kexin type 9; not shown: His tag

[2] = molecular target: T2, His-tagged PCSK9Δhelix (human, UniProt Q8NBP7 31-152; Q8NBP7 168-692); assay: TR-FRET competition (PCSK9Δhelix/Ab20 assay); competitor Ab20
T2 construct: Human PCSK9 M1-Q692 with an engineered TEV site, cut by TEV protease; new N-terminus of the catalytic domain is S-A168; also called His-PCSK9Δhelix; not shown: His tag

[3] = molecular target: T3, proprotein convertase subtilisin/kexin type 9 (PCSK9) (human, UniProt Q8NBP7 31-692); assay: phage spot ELISA
T3 construct: His-tagged full-length PCSK9 in TR-FRET and SPR, biotinylated in phage ELISA; secreted protein is autoprocessed (prodomain plus catalytic/CRD chain starting at S153); also called rec.PCSK9; His-PCSK9

[4] = molecular target: T4, PCSK9Δhelix (human, Chemically biotinylated in the phage ELISAs; the site is not given.); assay: phage spot ELISA
T4 construct: construct M1-Q692 with engineered TEV site, cleaved by TEV; also called His-PCSK9Δhelix; open groove PCSK9Δhelix
T4 sequence (prodomain, as listed by the source mutant limits assumed, chain 1 of 2): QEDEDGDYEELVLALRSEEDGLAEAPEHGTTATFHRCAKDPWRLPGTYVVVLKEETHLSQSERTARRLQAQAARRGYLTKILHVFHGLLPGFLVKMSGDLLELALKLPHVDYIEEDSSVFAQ
T4 sequence (chain, as listed by the source mutant limits assumed, chain 2 of 2): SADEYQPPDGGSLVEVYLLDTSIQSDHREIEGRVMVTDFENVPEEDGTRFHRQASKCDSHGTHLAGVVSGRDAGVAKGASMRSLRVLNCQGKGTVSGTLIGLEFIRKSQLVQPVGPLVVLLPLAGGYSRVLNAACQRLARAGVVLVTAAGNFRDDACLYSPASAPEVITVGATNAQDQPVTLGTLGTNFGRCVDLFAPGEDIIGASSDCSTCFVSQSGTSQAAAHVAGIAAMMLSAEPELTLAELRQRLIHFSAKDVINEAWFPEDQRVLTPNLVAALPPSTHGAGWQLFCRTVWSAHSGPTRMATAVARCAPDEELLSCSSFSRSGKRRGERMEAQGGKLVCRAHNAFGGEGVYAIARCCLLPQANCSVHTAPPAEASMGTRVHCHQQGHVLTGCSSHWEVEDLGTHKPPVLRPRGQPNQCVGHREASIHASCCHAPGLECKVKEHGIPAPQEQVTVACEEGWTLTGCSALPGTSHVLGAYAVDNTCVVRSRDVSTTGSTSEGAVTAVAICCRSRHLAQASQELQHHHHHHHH

T3 sequence (Q8NBP7 other isoform, or with tags, fused parts or gaps limits assumed): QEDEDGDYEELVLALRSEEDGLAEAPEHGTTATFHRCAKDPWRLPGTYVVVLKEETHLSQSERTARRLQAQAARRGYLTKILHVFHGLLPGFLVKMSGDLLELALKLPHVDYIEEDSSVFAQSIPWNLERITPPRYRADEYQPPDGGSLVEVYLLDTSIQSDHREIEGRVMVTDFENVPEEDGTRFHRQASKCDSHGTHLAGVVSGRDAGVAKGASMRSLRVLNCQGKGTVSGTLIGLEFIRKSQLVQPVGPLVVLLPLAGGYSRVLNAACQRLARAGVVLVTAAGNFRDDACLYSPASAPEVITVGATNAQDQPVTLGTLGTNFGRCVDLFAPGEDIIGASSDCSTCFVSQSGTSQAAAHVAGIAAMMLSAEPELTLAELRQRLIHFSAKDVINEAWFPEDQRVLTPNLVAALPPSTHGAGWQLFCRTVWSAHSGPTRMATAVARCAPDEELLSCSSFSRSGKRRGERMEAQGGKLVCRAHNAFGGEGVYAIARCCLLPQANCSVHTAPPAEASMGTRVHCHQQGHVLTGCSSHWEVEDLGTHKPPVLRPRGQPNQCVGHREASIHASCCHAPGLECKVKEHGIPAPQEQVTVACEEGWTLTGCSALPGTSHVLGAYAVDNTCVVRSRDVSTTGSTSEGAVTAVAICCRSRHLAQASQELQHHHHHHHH
T2 sequence (Q8NBP7 31-152, stated change not applied, chain 1 of 2): as the sequence (prodomain, as listed by the source mutant limits assumed, chain 1 of 2) above
T2 sequence (Q8NBP7 other isoform, or with tags, fused parts or gaps mutant, chain 2 of 2): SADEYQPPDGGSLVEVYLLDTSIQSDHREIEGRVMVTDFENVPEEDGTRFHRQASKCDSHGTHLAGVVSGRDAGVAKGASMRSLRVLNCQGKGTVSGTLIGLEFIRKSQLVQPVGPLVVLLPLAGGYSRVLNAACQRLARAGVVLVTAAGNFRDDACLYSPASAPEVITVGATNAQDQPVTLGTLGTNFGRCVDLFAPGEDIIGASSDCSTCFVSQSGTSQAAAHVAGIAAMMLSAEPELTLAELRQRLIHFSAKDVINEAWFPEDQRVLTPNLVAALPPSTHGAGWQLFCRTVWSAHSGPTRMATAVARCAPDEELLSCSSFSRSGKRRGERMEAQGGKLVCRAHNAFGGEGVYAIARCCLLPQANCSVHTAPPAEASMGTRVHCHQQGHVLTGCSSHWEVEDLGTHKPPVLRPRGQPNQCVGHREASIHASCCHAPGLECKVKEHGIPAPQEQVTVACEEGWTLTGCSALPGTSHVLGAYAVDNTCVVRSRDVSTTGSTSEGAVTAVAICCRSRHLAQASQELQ
T1 sequence (Q8NBP7 31-692 limits assumed): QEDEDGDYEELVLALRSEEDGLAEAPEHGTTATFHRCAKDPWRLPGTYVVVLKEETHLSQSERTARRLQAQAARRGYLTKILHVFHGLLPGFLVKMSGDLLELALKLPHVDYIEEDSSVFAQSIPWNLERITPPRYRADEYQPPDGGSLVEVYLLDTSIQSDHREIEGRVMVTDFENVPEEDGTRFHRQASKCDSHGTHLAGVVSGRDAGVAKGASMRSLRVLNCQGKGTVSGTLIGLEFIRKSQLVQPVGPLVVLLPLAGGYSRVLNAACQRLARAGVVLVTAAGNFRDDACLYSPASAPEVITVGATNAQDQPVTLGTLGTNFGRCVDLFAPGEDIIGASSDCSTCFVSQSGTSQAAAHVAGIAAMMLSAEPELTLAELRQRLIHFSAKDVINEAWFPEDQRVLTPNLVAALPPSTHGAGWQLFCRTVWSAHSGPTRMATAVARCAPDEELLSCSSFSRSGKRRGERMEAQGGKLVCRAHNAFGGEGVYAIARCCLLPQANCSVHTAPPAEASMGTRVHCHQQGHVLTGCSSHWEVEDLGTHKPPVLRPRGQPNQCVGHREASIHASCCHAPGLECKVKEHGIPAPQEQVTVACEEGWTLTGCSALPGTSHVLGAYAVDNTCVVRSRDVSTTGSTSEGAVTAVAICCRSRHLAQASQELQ

B1: Compound 63 (Ac-MCLWNLKRIGSQCEY-NH2) (peptide)
peptide: Ac-MCLWNLKRIGSQCEY-NH2
modifications: disulfide 2-13
SMILES: CC[C@H](C)[C@@H]1NC(=O)[C@H](CCCNC(=N)N)NC(=O)[C@H](CCCCN)NC(=O)[C@H](CC(C)C)NC(=O)[C@H](CC(N)=O)NC(=O)[C@H](Cc2c[nH]c3ccccc23)NC(=O)[C@H](CC(C)C)NC(=O)[C@@H](NC(=O)[C@H](CCSC)NC(C)=O)CSSC[C@@H](C(=O)N[C@@H](CCC(=O)O)C(=O)N[C@@H](Cc2ccc(O)cc2)C(N)=O)NC(=O)[C@H](CCC(N)=O)NC(=O)[C@H](CO)NC(=O)CNC1=O
Work on B1 yielded an IC50 [1] of 14.6 µM and an IC50 [2] of 6 µM.

B2: Compound 65 (Ac-WCLWNLKRIGSQCEY-NH2) (peptide)
peptide: Ac-WCLWNLKRIGSQCEY-NH2
modifications: disulfide 2-13
SMILES: CC[C@H](C)[C@@H]1NC(=O)[C@H](CCCNC(=N)N)NC(=O)[C@H](CCCCN)NC(=O)[C@H](CC(C)C)NC(=O)[C@H](CC(N)=O)NC(=O)[C@H](Cc2c[nH]c3ccccc23)NC(=O)[C@H](CC(C)C)NC(=O)[C@@H](NC(=O)[C@H](Cc2c[nH]c3ccccc23)NC(C)=O)CSSC[C@@H](C(=O)N[C@@H](CCC(=O)O)C(=O)N[C@@H](Cc2ccc(O)cc2)C(N)=O)NC(=O)[C@H](CCC(N)=O)NC(=O)[C@H](CO)NC(=O)CNC1=O
B2 was tested, and the IC50 [1] was > 50 µM and the IC50 [2] was 7.1 µM.

B3: Compound 95 (Ac-FCLWNLKRIGSQCEY-NH2) (peptide)
peptide: Ac-FCLWNLKRIGSQCEY-NH2
modifications: disulfide 2-13
SMILES: CC[C@H](C)[C@@H]1NC(=O)[C@H](CCCNC(=N)N)NC(=O)[C@H](CCCCN)NC(=O)[C@H](CC(C)C)NC(=O)[C@H](CC(N)=O)NC(=O)[C@H](Cc2c[nH]c3ccccc23)NC(=O)[C@H](CC(C)C)NC(=O)[C@@H](NC(=O)[C@H](Cc2ccccc2)NC(C)=O)CSSC[C@@H](C(=O)N[C@@H](CCC(=O)O)C(=O)N[C@@H](Cc2ccc(O)cc2)C(N)=O)NC(=O)[C@H](CCC(N)=O)NC(=O)[C@H](CO)NC(=O)CNC1=O
For B3, the IC50 [1] was > 50 µM and the IC50 [2] was 12.7 µM.

SGLAPTVSDS [SEQ ID NO 375] gave an ELISA [3] of 0.119, a s/n [3] of 1.23 and an ELISA [4] of 0.55. For the same binder, the s/n [4] was 4.33.

B4: Compound 40 (Ac-GSG-CWNLKRIGSQGCW-NH2) (peptide)
peptide: Ac-GSGCWNLKRIGSQGCW-NH2
modifications: disulfide 4-15
SMILES: CC[C@H](C)[C@@H]1NC(=O)[C@H](CCCNC(=N)N)NC(=O)[C@H](CCCCN)NC(=O)[C@H](CC(C)C)NC(=O)[C@H](CC(N)=O)NC(=O)[C@H](Cc2c[nH]c3ccccc23)NC(=O)[C@@H](NC(=O)CNC(=O)[C@H](CO)NC(=O)CNC(C)=O)CSSC[C@@H](C(=O)N[C@@H](Cc2c[nH]c3ccccc23)C(N)=O)NC(=O)CNC(=O)[C@H](CCC(N)=O)NC(=O)[C@H](CO)NC(=O)CNC1=O
B4 showed an IC50 [1] of 5.96 µM and an IC50 [2] of 2.41 µM.

Binder SGVCSDHYIGGKEVRC [SEQ ID NO 378] has an ELISA [3] of 1.12 and a s/n [3] of 6.19.

SGDTRSQLSH [SEQ ID NO 376] gave an ELISA [3] of 2.57, a s/n [3] of 11.9 and an ELISA [4] of 1.24. It also gave a s/n [4] of 11.3.

SGEHQFYSYRGVDVYR [SEQ ID NO 370] showed an ELISA [3] of 0.458, a s/n [3] of 1.45 and an ELISA [4] of 0.461. It also gave a s/n [4] of 3.71.

B5: Compound 39 (Ac-CWNLKRIGSQGCW-NH2) (peptide)
peptide: Ac-CWNLKRIGSQGCW-NH2
modifications: disulfide 1-12
SMILES: CC[C@H](C)[C@@H]1NC(=O)[C@H](CCCNC(=N)N)NC(=O)[C@H](CCCCN)NC(=O)[C@H](CC(C)C)NC(=O)[C@H](CC(N)=O)NC(=O)[C@H](Cc2c[nH]c3ccccc23)NC(=O)[C@@H](NC(C)=O)CSSC[C@@H](C(=O)N[C@@H](Cc2c[nH]c3ccccc23)C(N)=O)NC(=O)CNC(=O)[C@H](CCC(N)=O)NC(=O)[C@H](CO)NC(=O)CNC1=O
B5 was tested, and the IC50 [1] was > 50 µM and the IC50 [2] was 37.5 µM.

Binder SGSYRGAWSVFGGSTD [SEQ ID NO 372] has an ELISA [3] of 1.09, a s/n [3] of 5.15 and an ELISA [4] of 1.04. The s/n [4] was 7.68.

B6: Compound 88 (Ac-FCLWNLARIGSQCWF-NH2) (peptide)
peptide: Ac-FCLWNLARIGSQCWF-NH2
modifications: disulfide 2-13
SMILES: CC[C@H](C)[C@@H]1NC(=O)[C@H](CCCNC(=N)N)NC(=O)[C@H](C)NC(=O)[C@H](CC(C)C)NC(=O)[C@H](CC(N)=O)NC(=O)[C@H](Cc2c[nH]c3ccccc23)NC(=O)[C@H](CC(C)C)NC(=O)[C@@H](NC(=O)[C@H](Cc2ccccc2)NC(C)=O)CSSC[C@@H](C(=O)N[C@@H](Cc2c[nH]c3ccccc23)C(=O)N[C@@H](Cc2ccccc2)C(N)=O)NC(=O)[C@H](CCC(N)=O)NC(=O)[C@H](CO)NC(=O)CNC1=O
Binder B6 has an IC50 [1] of 17.9 µM and an IC50 [2] of 7.46 µM.

SGPRTYLRGLVD [SEQ ID NO 366] was tested, and the ELISA [3] was 0.355, the s/n [3] was 3.1 and the ELISA [4] was 0.375. For the same binder, the s/n [4] was 3.44.

For SGACLNHFVSGNMIRC [SEQ ID NO 371], the ELISA [3] was 0.607, the s/n [3] was 5.19 and the ELISA [4] was 0.649. The s/n [4] was 5.55.

With SGMVYVDRGVRVFT [SEQ ID NO 368] the ELISA [3] was 0.893, the s/n [3] was 8.5 and the ELISA [4] was 1.01. It also gave a s/n [4] of 10.2.

Binder Ac-WCLWNLKRIGSQCWF (disulfide 2-13) [Compound 90 (Ac-WCLWNLKRIGSQCWF)] has an IC50 [1] of 29.2 µM and an IC50 [2] of 7.38 µM.

In the case of SGNCWSSLRGICENLG [SEQ ID NO 367], the ELISA [3] is reported as 0.609, the s/n [3] is reported as 1.47 and the ELISA [4] is reported as 0.601. For the same binder, the s/n [4] was 5.2.

SGCWTYLRGGCSVT [SEQ ID NO 373] gave an ELISA [3] of 0.487, a s/n [3] of 4.39 and an ELISA [4] of 0.569. The s/n [4] was 5.37.

With SGTPEMPAML [SEQ ID NO 374] the ELISA [3] was 3.01, the s/n [3] was 5.74 and the ELISA [4] was 2.25. It also gave a s/n [4] of 8.06.

With SGGCVKYRGSVSCQESKT [SEQ ID NO 369] the ELISA [3] was 0.373, the s/n [3] was 3.32 and the ELISA [4] was 0.378. It also gave a s/n [4] of 3.37.

B7: Compound 89 (WCLWNLKRIGSQCWF-NH2) (peptide)
peptide: WCLWNLKRIGSQCWF-NH2
modifications: disulfide 2-13; N-terminus assumed
SMILES: CC[C@H](C)[C@@H]1NC(=O)[C@H](CCCNC(=N)N)NC(=O)[C@H](CCCCN)NC(=O)[C@H](CC(C)C)NC(=O)[C@H](CC(N)=O)NC(=O)[C@H](Cc2c[nH]c3ccccc23)NC(=O)[C@H](CC(C)C)NC(=O)[C@@H](NC(=O)[C@@H](N)Cc2c[nH]c3ccccc23)CSSC[C@@H](C(=O)N[C@@H](Cc2c[nH]c3ccccc23)C(=O)N[C@@H](Cc2ccccc2)C(N)=O)NC(=O)[C@H](CCC(N)=O)NC(=O)[C@H](CO)NC(=O)CNC1=O
For B7, the IC50 [1] was 6.9 µM and the IC50 [2] was 2.98 µM.

B8: Compound 87 (Ac-GCLWNLKRIGSQCWF-NH2) (peptide)
peptide: Ac-GCLWNLKRIGSQCWF-NH2
modifications: disulfide 2-13
SMILES: CC[C@H](C)[C@@H]1NC(=O)[C@H](CCCNC(=N)N)NC(=O)[C@H](CCCCN)NC(=O)[C@H](CC(C)C)NC(=O)[C@H](CC(N)=O)NC(=O)[C@H](Cc2c[nH]c3ccccc23)NC(=O)[C@H](CC(C)C)NC(=O)[C@@H](NC(=O)CNC(C)=O)CSSC[C@@H](C(=O)N[C@@H](Cc2c[nH]c3ccccc23)C(=O)N[C@@H](Cc2ccccc2)C(N)=O)NC(=O)[C@H](CCC(N)=O)NC(=O)[C@H](CO)NC(=O)CNC1=O
B8 was tested, and the IC50 [1] was > 50 µM and the IC50 [2] was 9.53 µM.

B9: Compound 66 (WCLWNLKRIGSQCWF) (peptide)
peptide: H-WCLWNLKRIGSQCWF-OH
modifications: disulfide 2-13
SMILES: CC[C@H](C)[C@@H]1NC(=O)[C@H](CCCNC(=N)N)NC(=O)[C@H](CCCCN)NC(=O)[C@H](CC(C)C)NC(=O)[C@H](CC(N)=O)NC(=O)[C@H](Cc2c[nH]c3ccccc23)NC(=O)[C@H](CC(C)C)NC(=O)[C@@H](NC(=O)[C@@H](N)Cc2c[nH]c3ccccc23)CSSC[C@@H](C(=O)N[C@@H](Cc2c[nH]c3ccccc23)C(=O)N[C@@H](Cc2ccccc2)C(=O)O)NC(=O)[C@H](CCC(N)=O)NC(=O)[C@H](CO)NC(=O)CNC1=O
Binder B9 has an IC50 [1] of 31.3 µM and an IC50 [2] of 12 µM.

B10: Compound 98 (Fmoc-GSG-CWNLKRIGSQGC-NH2) (peptide)
peptide: Fmoc-GSGCWNLKRIGSQGC-NH2
modifications: disulfide 4-15
SMILES: CC[C@H](C)[C@@H]1NC(=O)[C@H](CCCNC(=N)N)NC(=O)[C@H](CCCCN)NC(=O)[C@H](CC(C)C)NC(=O)[C@H](CC(N)=O)NC(=O)[C@H](Cc2c[nH]c3ccccc23)NC(=O)[C@@H](NC(=O)CNC(=O)[C@H](CO)NC(=O)CNC(=O)OCC2c3ccccc3-c3ccccc32)CSSC[C@@H](C(N)=O)NC(=O)CNC(=O)[C@H](CCC(N)=O)NC(=O)[C@H](CO)NC(=O)CNC1=O
B10 showed an IC50 [1] of 37.6 µM and an IC50 [2] of 3.6 µM.
